For 1 substance, Geometric mean MFI results are on record in patent US20260193377A1.

The target of experiment [1] is GCC expressed on T84 cells (UniProt P25092). As to the kind of experiment: flow cytometry on T84 cells expressing GCC, 300 nm [sic], PE-anti human Fc secondary; Blank 15.0. On the technique in general: A flow cytometer gives signals particle by particle.
For experiment [2] the target is unchanged. In words: flow cytometry on T84 cells expressing GCC, 300 nm [sic], PE-anti human Fc secondary; Blank 30.7.

Sequence of GCC expressed on T84 cells (P25092 24-1073 limits assumed): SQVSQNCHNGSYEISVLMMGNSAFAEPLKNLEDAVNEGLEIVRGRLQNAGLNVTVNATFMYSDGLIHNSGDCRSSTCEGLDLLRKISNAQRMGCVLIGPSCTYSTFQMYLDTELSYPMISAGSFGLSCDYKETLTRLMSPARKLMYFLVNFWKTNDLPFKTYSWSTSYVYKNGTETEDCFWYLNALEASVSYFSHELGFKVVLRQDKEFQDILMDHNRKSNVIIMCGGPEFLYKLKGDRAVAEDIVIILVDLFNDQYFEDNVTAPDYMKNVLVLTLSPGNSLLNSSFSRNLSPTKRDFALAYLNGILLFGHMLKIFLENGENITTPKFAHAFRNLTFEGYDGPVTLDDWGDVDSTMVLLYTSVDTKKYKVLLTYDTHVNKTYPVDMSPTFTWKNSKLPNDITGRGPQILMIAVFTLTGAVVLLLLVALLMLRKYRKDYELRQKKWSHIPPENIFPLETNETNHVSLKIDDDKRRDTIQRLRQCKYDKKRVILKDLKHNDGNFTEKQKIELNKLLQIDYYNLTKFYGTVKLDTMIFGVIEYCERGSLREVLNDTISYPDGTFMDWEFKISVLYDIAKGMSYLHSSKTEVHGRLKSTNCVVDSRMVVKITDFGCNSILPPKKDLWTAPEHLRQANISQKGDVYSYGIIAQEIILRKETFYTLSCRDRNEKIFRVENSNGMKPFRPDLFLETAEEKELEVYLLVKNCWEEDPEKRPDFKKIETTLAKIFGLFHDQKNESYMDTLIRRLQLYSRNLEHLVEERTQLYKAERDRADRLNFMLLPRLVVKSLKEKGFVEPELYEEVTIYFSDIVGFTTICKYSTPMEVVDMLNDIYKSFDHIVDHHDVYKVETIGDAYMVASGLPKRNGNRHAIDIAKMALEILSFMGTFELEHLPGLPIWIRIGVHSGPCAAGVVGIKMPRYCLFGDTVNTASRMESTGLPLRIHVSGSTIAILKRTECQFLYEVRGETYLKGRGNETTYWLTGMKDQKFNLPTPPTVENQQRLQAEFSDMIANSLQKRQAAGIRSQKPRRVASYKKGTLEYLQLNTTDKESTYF

On to Human IgG1 isotype (antibody), for which the Geometric mean MFI in experiment [1] worked out at 17.7; in experiment [2], 30.7.
